Experimental findings from doi:10.64898/2025.12.01.691715 are described below.

A value given as a limit tells only on which side of the number the result lay.

Assay [1] addresses Myosin11 (smooth muscle myosin heavy chain, myosin II isoform) (mouse (endogenous in retina)) (UniProt O08638). Description: FRET or BRET.
Assay [2] shares this target.

Sequence of UniProt O08638 (O08638 whole entry, canonical isoform): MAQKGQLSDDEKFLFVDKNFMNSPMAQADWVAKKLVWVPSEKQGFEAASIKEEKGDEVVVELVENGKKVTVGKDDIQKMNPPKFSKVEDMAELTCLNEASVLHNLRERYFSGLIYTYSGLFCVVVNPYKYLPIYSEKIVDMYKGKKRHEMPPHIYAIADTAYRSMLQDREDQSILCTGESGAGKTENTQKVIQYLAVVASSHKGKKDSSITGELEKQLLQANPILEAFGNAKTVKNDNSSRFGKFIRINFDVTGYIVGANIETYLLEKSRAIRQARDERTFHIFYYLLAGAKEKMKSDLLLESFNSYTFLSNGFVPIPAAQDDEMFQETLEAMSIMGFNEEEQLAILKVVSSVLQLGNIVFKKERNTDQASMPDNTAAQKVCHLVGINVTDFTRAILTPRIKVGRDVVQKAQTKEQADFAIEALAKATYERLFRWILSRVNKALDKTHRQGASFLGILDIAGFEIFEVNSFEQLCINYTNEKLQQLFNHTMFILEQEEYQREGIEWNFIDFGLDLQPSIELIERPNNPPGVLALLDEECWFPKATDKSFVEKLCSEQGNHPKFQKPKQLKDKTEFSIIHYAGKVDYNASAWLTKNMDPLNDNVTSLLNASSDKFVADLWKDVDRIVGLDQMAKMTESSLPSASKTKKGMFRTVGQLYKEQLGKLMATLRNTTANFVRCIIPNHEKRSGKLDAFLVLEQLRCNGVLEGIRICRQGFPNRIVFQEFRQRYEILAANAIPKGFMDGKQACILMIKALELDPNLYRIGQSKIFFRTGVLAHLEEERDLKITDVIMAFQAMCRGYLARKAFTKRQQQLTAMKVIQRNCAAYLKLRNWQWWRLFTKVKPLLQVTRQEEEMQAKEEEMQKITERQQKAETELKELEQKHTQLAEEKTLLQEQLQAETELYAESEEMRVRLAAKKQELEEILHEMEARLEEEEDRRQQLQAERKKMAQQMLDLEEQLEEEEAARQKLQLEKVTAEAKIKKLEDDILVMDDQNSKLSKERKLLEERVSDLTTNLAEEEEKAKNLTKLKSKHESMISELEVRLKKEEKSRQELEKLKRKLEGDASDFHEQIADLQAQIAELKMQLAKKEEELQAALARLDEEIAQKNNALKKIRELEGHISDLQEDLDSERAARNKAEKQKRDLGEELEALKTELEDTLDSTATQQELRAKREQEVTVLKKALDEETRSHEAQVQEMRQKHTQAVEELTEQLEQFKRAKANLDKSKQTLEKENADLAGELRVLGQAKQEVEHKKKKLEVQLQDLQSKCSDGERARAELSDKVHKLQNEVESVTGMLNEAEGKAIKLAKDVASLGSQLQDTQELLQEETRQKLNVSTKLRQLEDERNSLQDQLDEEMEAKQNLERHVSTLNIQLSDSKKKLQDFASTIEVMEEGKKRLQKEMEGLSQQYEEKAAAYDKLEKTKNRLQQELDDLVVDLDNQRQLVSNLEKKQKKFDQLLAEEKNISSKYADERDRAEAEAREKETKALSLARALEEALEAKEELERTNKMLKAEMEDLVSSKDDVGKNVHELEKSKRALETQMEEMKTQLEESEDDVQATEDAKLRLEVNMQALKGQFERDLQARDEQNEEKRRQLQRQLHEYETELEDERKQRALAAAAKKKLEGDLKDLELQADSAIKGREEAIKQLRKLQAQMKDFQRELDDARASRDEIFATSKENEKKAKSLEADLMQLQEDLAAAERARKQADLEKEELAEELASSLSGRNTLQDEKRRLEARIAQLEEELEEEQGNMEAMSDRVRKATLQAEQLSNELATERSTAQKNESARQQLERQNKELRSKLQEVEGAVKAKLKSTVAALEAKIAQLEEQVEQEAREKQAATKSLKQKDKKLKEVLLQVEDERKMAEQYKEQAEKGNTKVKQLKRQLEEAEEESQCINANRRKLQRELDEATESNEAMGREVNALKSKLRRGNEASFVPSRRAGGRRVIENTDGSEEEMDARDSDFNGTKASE

On to “α-smooth muscle actin (α-SMA) (from UniProt P62737 1-377) (natural protein)”, for which the FRET efficiency in assay [1] is over 0.8. In assay [2], this substance registered a JNDR after noradrenaline, mesh pericytes (orders 3-4), blebbistatin vs. vehicle of 0.81.
